Measured values: patent US20250257133A1 (ADAGENE PTE, published 2025)

The binders below were run against Human CD28 (ELISAs of Examples 4 and 13) (human, UniProt P10747 19-152, limits assumed) (assay: ELISA).

| Binder | EC50 |
| --- | --- |
| TY27566 (bispecific antibody, human IgG1, kappa, N297A, also called anti-HER2xCD28 BsAb; TY27566 (WT)) light: not shown heavy: EVQLVESGGGLVQPGGSLRLSCAASGFTFTDYTMDWVRQAPGKGLEWVADVNPNSGGSIYNQRFKGRFTLSVDRSKNTLYLQMNSLRAEDTAVYYCARNLGPSFYFDYWGQGTLVTVSSASTKGPSVFPLAPSSKSTSGGTAALGCLVKDYFPEPVTVSWNSGALTSGVHTFPAVLQSSGLYSLSSVVTVPSSSLGTQTYICNVNHKPSNTKVDKKVEPKSCDKTHTCPPCPAPELLGGPSVFLFPPKPKDTLMISRTPEVTCVVVDVSHEDPEVKFNWYVDGVEVHNAKTKPREEQYASTYRVVSVLTVLHQDWLNGKEYKCKVSNKALPAPIEKTISKAKGQPREPQVYTLPPSRKKLTKNQVKLTCLVKGFYPSDIAVEWESNGQPENNYKTTPPVLDCDGSFFLYSKLTVDKSRWQQGNVFSCSVMHEALHNHYTQKSLSLSPGK DIQLTQSPSSLSASVGDRVTITCRASQSVDFHGISFLHWYQQKPGKAPKLLIYAASSLQSGVPSRFSGSGSGTDFTLTISSLQPEDFATYYCQQSYRSPRTFGQGTKVEIKGGGGSGGGGSGGGGSGGGGSEVQLVESGGGLVQPGGSLRLSCAASGFSLSTGGVGVSWIRQAPGKGLEWIGEIYHSGSTYYSPSLKSRVTISRDNSKNTLYLQLNSLRAEDTAVYYCARYEYYYYDFDYWGQGTLVTVSSEPKSSDKTHTCPPCPAPELLGGPSVFLFPPKPKDTLMISRTPEVTCVVVDVSHEDPEVKFNWYVDGVEVHNAKTKPREEQYASTYRVVSVLTVLHQDWLNGKEYKCKVSNKALPAPIEKTISKAKGQPREPQVYTDPPSRDELTKNQVSLTCLVDGFYPSDIAVEWESNGQPENCYKTTPPVLDSDGSFFLYSKLTVDKSRWQQGNVFSCSVMHEALHNHYTQDSLSLSPGK | 3.89 nM |
| TY28652 (bispecific antibody, human IgG1, kappa, N297A, anti-HER2 Fab x CD28 scFv BC8227 (VL-VH)-Fc) light: not shown heavy: EVQLVESGGGLVQPGGSLRLSCAASGFTFTDYTMDWVRQAPGKGLEWVADVNPNSGGSIYNQRFKGRFTLSVDRSKNTLYLQMNSLRAEDTAVYYCARNLGPSFYFDYWGQGTLVTVSSASTKGPSVFPLAPSSKSTSGGTAALGCLVKDYFPEPVTVSWNSGALTSGVHTFPAVLQSSGLYSLSSVVTVPSSSLGTQTYICNVNHKPSNTKVDKKVEPKSCDKTHTCPPCPAPELLGGPSVFLFPPKPKDTLMISRTPEVTCVVVDVSHEDPEVKFNWYVDGVEVHNAKTKPREEQYASTYRVVSVLTVLHQDWLNGKEYKCKVSNKALPAPIEKTISKAKGQPREPQVYTLPPSRKKLTKNQVKLTCLVKGFYPSDIAVEWESNGQPENNYKTTPPVLDCDGSFFLYSKLTVDKSRWQQGNVFSCSVMHEALHNHYTQKSLSLSPGK DIQLTQSPSSLSASVGDRVTITCRASQSVDFYGKSFLHWYQQKPGKAPKLLIYAASSLESGVPSRFSGSGSGTDFTLTISSLQPEDFATYYCQQSYRSPPTFGQGTKVEIKGGGGSGGGGSGGGGSGGGGSEVQLVESGGGLVQPGGSLRLSCAASGFSLSTGGVGVSWIRQAPGKGLEWIGSIYHSGSTYYNPSLKSRVTISRDNSKNTLYLQLNSLRAEDTAVYYCARYEYDYYAFDYWGQGTLVTVSSEPKSSDKTHTCPPCPAPELLGGPSVFLFPPKPKDTLMISRTPEVTCVVVDVSHEDPEVKFNWYVDGVEVHNAKTKPREEQYASTYRVVSVLTVLHQDWLNGKEYKCKVSNKALPAPIEKTISKAKGQPREPQVYTDPPSRDELTKNQVSLTCLVDGFYPSDIAVEWESNGQPENCYKTTPPVLDSDGSFFLYSKLTVDKSRWQQGNVFSCSVMHEALHNHYTQDSLSLSPGK | 3.68 nM |
| TY28654 (bispecific antibody, human IgG1, kappa, N297A, anti-HER2 Fab x CD28 scFv BC8230 (VL-VH)-Fc) light: not shown heavy: EVQLVESGGGLVQPGGSLRLSCAASGFTFTDYTMDWVRQAPGKGLEWVADVNPNSGGSIYNQRFKGRFTLSVDRSKNTLYLQMNSLRAEDTAVYYCARNLGPSFYFDYWGQGTLVTVSSASTKGPSVFPLAPSSKSTSGGTAALGCLVKDYFPEPVTVSWNSGALTSGVHTFPAVLQSSGLYSLSSVVTVPSSSLGTQTYICNVNHKPSNTKVDKKVEPKSCDKTHTCPPCPAPELLGGPSVFLFPPKPKDTLMISRTPEVTCVVVDVSHEDPEVKFNWYVDGVEVHNAKTKPREEQYASTYRVVSVLTVLHQDWLNGKEYKCKVSNKALPAPIEKTISKAKGQPREPQVYTLPPSRKKLTKNQVKLTCLVKGFYPSDIAVEWESNGQPENNYKTTPPVLDCDGSFFLYSKLTVDKSRWQQGNVFSCSVMHEALHNHYTQKSLSLSPGK DIQLTQSPSSLSASVGDRVTITCRASQSVDFYGKSFLHWYQQKPGKAPKLLIYAASSLQSGVPSRFSGSGSGTDFTLTISSLQPEDFATYYCQQSYRTPLTFGQGTKVEIKGGGGSGGGGSGGGGSGGGGSEVQLVESGGGLVQPGGSLRLSCAASGFSLSTSGVGVSWIRQAPGKGLEWIGSIYHSGSTYYNPSLKSRVTISRDNSKNTLYLQLNSLRAEDTAVYYCARYEYGYYAFDYWGQGTLVTVSSEPKSSDKTHTCPPCPAPELLGGPSVFLFPPKPKDTLMISRTPEVTCVVVDVSHEDPEVKFNWYVDGVEVHNAKTKPREEQYASTYRVVSVLTVLHQDWLNGKEYKCKVSNKALPAPIEKTISKAKGQPREPQVYTDPPSRDELTKNQVSLTCLVDGFYPSDIAVEWESNGQPENCYKTTPPVLDSDGSFFLYSKLTVDKSRWQQGNVFSCSVMHEALHNHYTQDSLSLSPGK | 68.4 nM |

Continued by falling EC50, values first:

| EC50 | Binder |
| --- | --- |
| 128 nM | TY28656 (bispecific antibody, human IgG1, kappa, N297A, anti-HER2 Fab x CD28 scFv BC8235 (VL-VH)-Fc) light: not shown heavy: EVQLVESGGGLVQPGGSLRLSCAASGFTFTDYTMDWVRQAPGKGLEWVADVNPNSGGSIYNQRFKGRFTLSVDRSKNTLYLQMNSLRAEDTAVYYCARNLGPSFYFDYWGQGTLVTVSSASTKGPSVFPLAPSSKSTSGGTAALGCLVKDYFPEPVTVSWNSGALTSGVHTFPAVLQSSGLYSLSSVVTVPSSSLGTQTYICNVNHKPSNTKVDKKVEPKSCDKTHTCPPCPAPELLGGPSVFLFPPKPKDTLMISRTPEVTCVVVDVSHEDPEVKFNWYVDGVEVHNAKTKPREEQYASTYRVVSVLTVLHQDWLNGKEYKCKVSNKALPAPIEKTISKAKGQPREPQVYTLPPSRKKLTKNQVKLTCLVKGFYPSDIAVEWESNGQPENNYKTTPPVLDCDGSFFLYSKLTVDKSRWQQGNVFSCSVMHEALHNHYTQKSLSLSPGK DIQLTQSPSSLSASVGDRVTITCRASQSVDFYGKSFLHWYQQKPGKAPKLLIYAASSLQSGVPSRFSGSGSGTDFTLTISSLQPEDFATYYCQQSYRTPRTFGQGTKVEIKGGGGSGGGGSGGGGSGGGGSEVQLVESGGGLVQPGGSLRLSCAASGFSLSTSGVGVGWIRQAPGKGLEWIGEIYHSGSTNYNPSLKSRVTISRDNSKNTLYLQLNSLRAEDTAVYYCARYEYGYYALDYWGQGTLVTVSSEPKSSDKTHTCPPCPAPELLGGPSVFLFPPKPKDTLMISRTPEVTCVVVDVSHEDPEVKFNWYVDGVEVHNAKTKPREEQYASTYRVVSVLTVLHQDWLNGKEYKCKVSNKALPAPIEKTISKAKGQPREPQVYTDPPSRDELTKNQVSLTCLVDGFYPSDIAVEWESNGQPENCYKTTPPVLDSDGSFFLYSKLTVDKSRWQQGNVFSCSVMHEALHNHYTQDSLSLSPGK |
| 8.14 nM | TY28655 (bispecific antibody, human IgG1, kappa, N297A, anti-HER2 Fab x CD28 scFv BC8233 (VL-VH)-Fc) light: not shown heavy: EVQLVESGGGLVQPGGSLRLSCAASGFTFTDYTMDWVRQAPGKGLEWVADVNPNSGGSIYNQRFKGRFTLSVDRSKNTLYLQMNSLRAEDTAVYYCARNLGPSFYFDYWGQGTLVTVSSASTKGPSVFPLAPSSKSTSGGTAALGCLVKDYFPEPVTVSWNSGALTSGVHTFPAVLQSSGLYSLSSVVTVPSSSLGTQTYICNVNHKPSNTKVDKKVEPKSCDKTHTCPPCPAPELLGGPSVFLFPPKPKDTLMISRTPEVTCVVVDVSHEDPEVKFNWYVDGVEVHNAKTKPREEQYASTYRVVSVLTVLHQDWLNGKEYKCKVSNKALPAPIEKTISKAKGQPREPQVYTLPPSRKKLTKNQVKLTCLVKGFYPSDIAVEWESNGQPENNYKTTPPVLDCDGSFFLYSKLTVDKSRWQQGNVFSCSVMHEALHNHYTQKSLSLSPGK DIQLTQSPSSLSASVGDRVTITCRASQSVDFYGISFLHWYQQKPGKAPKLLIYAASSLQSGVPSRFSGSGSGTDFTLTISSLQPEDFATYYCQQSYRTPRTFGQGTKVEIKGGGGSGGGGSGGGGSGGGGSEVQLVESGGGLVQPGGSLRLSCAASGFSLSTSGVGVSWIRQAPGKGLEWIGSIYHSGSTYYNPSLKSRVTISRDNSKNTLYLQLNSLRAEDTAVYYCARYEYDYYAFDYWGQGTLVTVSSEPKSSDKTHTCPPCPAPELLGGPSVFLFPPKPKDTLMISRTPEVTCVVVDVSHEDPEVKFNWYVDGVEVHNAKTKPREEQYASTYRVVSVLTVLHQDWLNGKEYKCKVSNKALPAPIEKTISKAKGQPREPQVYTDPPSRDELTKNQVSLTCLVDGFYPSDIAVEWESNGQPENCYKTTPPVLDSDGSFFLYSKLTVDKSRWQQGNVFSCSVMHEALHNHYTQDSLSLSPGK |
| 7.3 nM | TY28653 (bispecific antibody, human IgG1, kappa, N297A, anti-HER2 Fab x CD28 scFv BC8228 (VL-VH)-Fc) light: not shown heavy: EVQLVESGGGLVQPGGSLRLSCAASGFTFTDYTMDWVRQAPGKGLEWVADVNPNSGGSIYNQRFKGRFTLSVDRSKNTLYLQMNSLRAEDTAVYYCARNLGPSFYFDYWGQGTLVTVSSASTKGPSVFPLAPSSKSTSGGTAALGCLVKDYFPEPVTVSWNSGALTSGVHTFPAVLQSSGLYSLSSVVTVPSSSLGTQTYICNVNHKPSNTKVDKKVEPKSCDKTHTCPPCPAPELLGGPSVFLFPPKPKDTLMISRTPEVTCVVVDVSHEDPEVKFNWYVDGVEVHNAKTKPREEQYASTYRVVSVLTVLHQDWLNGKEYKCKVSNKALPAPIEKTISKAKGQPREPQVYTLPPSRKKLTKNQVKLTCLVKGFYPSDIAVEWESNGQPENNYKTTPPVLDCDGSFFLYSKLTVDKSRWQQGNVFSCSVMHEALHNHYTQKSLSLSPGK DIQLTQSPSSLSASVGDRVTITCRASQSVDFYGISFLHWYQQKPGKAPKLLIYAASSLQSGVPSRFSGSGSGTDFTLTISSLQPEDFATYYCQQSYRTPPTFGQGTKVEIKGGGGSGGGGSGGGGSGGGGSEVQLVESGGGLVQPGGSLRLSCAASGFSLSTGGVGVSWIRQAPGKGLEWIGSIYHSGSTYYNPSLKSRVTISRDNSKNTLYLQLNSLRAEDTAVYYCARYEYGYYALDYWGQGTLVTVSSEPKSSDKTHTCPPCPAPELLGGPSVFLFPPKPKDTLMISRTPEVTCVVVDVSHEDPEVKFNWYVDGVEVHNAKTKPREEQYASTYRVVSVLTVLHQDWLNGKEYKCKVSNKALPAPIEKTISKAKGQPREPQVYTDPPSRDELTKNQVSLTCLVDGFYPSDIAVEWESNGQPENCYKTTPPVLDSDGSFFLYSKLTVDKSRWQQGNVFSCSVMHEALHNHYTQDSLSLSPGK |
